The supplement of paper PMC9170038

Test system: K4 kissing-loop RNA reporter
Assay: apparent KD of K4 kissing-loop reporter; higher = weaker reporter binding
Settings: Eterna round: R107
Procedure: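 RNA-MaP round R107: designed RNA switches with theophylline, tryptophan, arginine or FMN aptamers are transcribed on-chip within common flanks. They are titrated with a labelled K4 kissing-loop RNA reporter in RNA-MaP buffer (100 mM Tris pH 7.5, 80 mM KCl, 4 mM MgCl2), without ligand or with the indicated ligand. Median apparent KD per design.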

[1] = input ligand: theophylline 20 uM
[2] = input ligand: tryptophan 2.4 mM
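Also: bound reporter read as fluorescence of individual clusters on recovered sequencing chips by microscopy, with normalized cluster intensities fitted with a binding model.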

Sequence	apparent KD of K4 kissing-loop reporter (input ligand: FMN 200 uM)	apparent KD of K4 kissing-loop reporter (input ligand: arginine 13.2 mM)	apparent KD of K4 kissing-loop reporter (input ligand: none)	apparent KD of K4 kissing-loop reporter [1]	apparent KD of K4 kissing-loop reporter [2]
AGGCACGAGCAAGGAUAUUGAGUAGAGUGAUGUUCUGCCUGGGUUGGCUCGGAAGAGCCUUCUCAGCGAGAAGGUGCUCGUGCCU [#2 Same State - FMN A Attempt #24 (HarryS)]	261 nM	475 nM	785 nM	542 nM	556 nM
AGGUGAGACUGAAGGAGCGAUCGCGCUAGUGAUGUUGGCGAGCAUGACAAAGUCAUGCACGAUCAGGUAGGUCGCAGUCUUACUC [Omei KL Arginine B SS B v1]	128 nM	103 nM	137 nM	123 nM	141 nM
AGUACAGACACGGCCGCCACUCAGAAGAAGACAGUAGUGAUGUUACUGAUGGUGAGAAUAAUAAAGAGGACCGGGUGUUGUGCAA [#04 K4 Tryptophan B Same State]	222 nM	202 nM	224 nM	240 nM	138 nM
AGUAGUUGGGCGGCCGCCACUGGAACAGCUUUGCCAAAGGCAGAGCACUAGAGUGAUGUUCUAGCUAGGACCGGGUCCAACUACA [whbob_SS_Tryp_B_t17]	588 nM	250 nM	444 nM	252 nM	1220 nM
AGUAUAGAGUCGGCCGCCACUGGUUUUAUGUGUGUCAAAUCUGGAUCAAAGUGAUGUUUUGAGACUAGGACCGGGACCAUUGUUA [#06 K4 Tryptophan B Exclusion]	160 nM	139 nM	145 nM	131 nM	206 nM
AGUAUGUAAUAUGGCAUAUUUAGAACUGAAGGAGCGCCGAAUAAGGCAGGUAGGUCGCGGAAAUAUGAGUGAUGUUCAUGUUUAA [KL-SSArg-A25]	88 nM	103 nM	101 nM	113 nM	82.8 nM
AGUCCUAUGACGGCCGCCACUCCGGUUAUGAUUUGCCAAGUGAUGUUUGGGUAUCAGGCGAGGCGGAGGACCGGGUCGACCUGCC [theeternabot_exclusion_KL_Trp_B_18]	171 nM	139 nM	151 nM	129 nM	152 nM
AGUGAACGAGCGGCCGCCACUAAAUGAGUGAUGUUCGUGAGUAGUGCUGUUCUCAUGAUUGUUUUUAGGACCGGGUUCGAUGUUG [edcclmullin]	937 nM	739 nM	762 nM	576 nM	662 nM
AGUGACGAGUGAUGUUCGUGAACACUGGAUACCAGCAGUCUUAUCUGCCCUUGGCAGCCAACGGGAACCGAAUGUUAAGACCUGU [theeternabot_exclusion_KL_Theo_A_4]	132 nM	114 nM	129 nM	149 nM	121 nM
AGUGAUGUGGGAAGGAGCGGUAUAAGAAUUCAGUGAUGUUGAAGUGUUGCUGUAAUAAAGAGCCAGGUAGGUCGCCUAGAUGUUA [KL-XARG B30]	811 nM	775 nM	940 nM	1120 nM	562 nM
AGUGAUGUGGGAAGGAGCGGUAUAUGAAUUCAGUGAUGUUGAAGUGAUGCUGUAAUGAUGUGCCAGGUAGGUCGCCUAGAUGUUA [KL-XARG B26]	267 nM	161 nM	244 nM	171 nM	187 nM
AGUGAUGUGGGAAGGAGCGGUAUAUGAGUUCAGUGAUGUUGAAGUGAUGAUAUAGUGAUGUGCCAGGUAGGUCGCCUAGAUGUUA [KL-XARG-B5]	281 nM	144 nM	210 nM	146 nM	202 nM
AGUGAUGUGGGAAGGAGCGGUUAAUGAAUUCAGUGAUGUUGAAGUGAUGCUGAAAUGAUGUGCCAGGUAGGUCGCCUAGAUGUUA [KL-XARG B28]	308 nM	164 nM	245 nM	164 nM	203 nM
AGUGCCGAGUGUGAUACCAGCUUCAUGCAGUGAUGUUGCACACGAGUGAUGUUCGUCCGAGGCCCUUGGCAGCGCAGUCGCUCGA [Same State Theophylline B Gf 30]	751 nM	807 nM	885 nM	711 nM	670 nM
AGUGUGCAAAAGCACACUCAGUACAAGGACAAGGAUAUCUACUAAUAGAGAAGGUGUCCUUUCCUUAGUGAUGUUAAGGAACUGA [Omei KL FMN A SS D v3]	205 nM	500 nM	617 nM	657 nM	595 nM
AGUUCUUGCCGAAGGAGCGAGGCAGAGUGAUGUUCUGCAAGAGGUCGAAAGACCUCACUGCCUCAGGUAGGUCGCGGCAUGAACA [Omei KL Arginine B Exc A v4]	801 nM	509 nM	930 nM	602 nM	1050 nM
AGUUUAGAGUGACUCGAUAAGAGUCACAAACGAGGACCGGUACGGCCGCCACUCGAAAUAACGAGAGUGAUGUUCUCGCUGGGUA [FiskerMod 4 - Jieux - Same State Tryptophan A]	317 nM	330 nM	342 nM	317 nM	93.3 nM
AUACAUGUAAAUCUAUAUGUAUAAUGGAGCCGAGGACCGGUACGGCCGCCACUCGGAGUAAUCGGAGUGAUGUUCCGAAAUGUAC [KL-SSTryp-A sub13]	93.7 nM	119 nM	104 nM	123 nM	64.6 nM
AUAUGCAGGAGAAGGAGCGUCGUUUCAAGUGAUGUUUGCAAGCGAGCUUACUAUAUAAGACGACAGGUAGGUCGCUCCUGCGUAA [#06 K4 Arginine B Exclusion]	166 nM	150 nM	155 nM	141 nM	149 nM
AUAUUUAUUUAGUCACUUUUCAUAUUAUGUCAGGAUAUCGUAUUUUCGAGAAGGGACUCAUGGUAGUGAUGUUACCUAUUUCUCA [#03 K4 FMN A Exclusion]	196 nM	382 nM	387 nM	404 nM	303 nM
AUCAUUAGUUCGGCCGCCACUCCAGUGAUGUUGGAGGGACGCAUAAUAUGCGCGCGGCUAACUAGGAGGACCGGGAACUUUAGGC [Maonce]	82.8 nM	115 nM	133 nM	86.9 nM	156 nM
AUGAGGUGACUAAAUAAUAAGGGAAUUGAUACCAGACAGAAUUCUGUCCCUUGGCAGCAGUGAUGUUGUUGCAAGUCAGCUCAAA [AK1.1 Exc Theophylline A]	265 nM	186 nM	206 nM	198 nM	212 nM

Sequence	apparent KD of K4 kissing-loop reporter (input ligand: FMN 200 uM)	apparent KD of K4 kissing-loop reporter (input ligand: arginine 13.2 mM)	apparent KD of K4 kissing-loop reporter (input ligand: none)	apparent KD of K4 kissing-loop reporter [1]	apparent KD of K4 kissing-loop reporter [2]
AUGCGCGCGGCGGCCGCCACUCGCAUGAGAGUGAUGUUCUCGCCGGGCCCGCAAGGGCCCGGUGUGAGGACCGGGCCGGGCUGCG [#2 Same State - Tryptophan B Attempt #18 (HarryS)]	632 nM	0.441 nM	257 nM	193 nM	136 nM
AUGCGCGCGGCGGCCGCCACUCGCAUGAGAGUGAUGUUCUCGCCGUGCCCGUAAGGGUGCGGUGUGAGGACCGGGCCGGGCUGCG [#2 Same State - Tryptophan B Attempt #20 (HarryS)]	204 nM	107 nM	227 nM	37.5 nM	239 nM
AUGGCACCUGCGGCCGCCACUCACUCCGGGCUGCUGGCCAGUGAUGUUGGUACGGCUGCCGGUUAGAGGACCGGGCAGGAGCUAA [Rienisdite]	88.8 nM	103 nM	107 nM	97.8 nM	90.7 nM
AUGGGCGAGGUAACGUGGAUAUCUCGUCGCAAGGAUAUCUGGAAACAGAGAAGGUGCUACAUUACCGGCAGUGAUGUUGCUGACC	959 nM	231 nM	559 nM	263 nM	131 nM
AUGGUAUUGCGAGGAUAUCCUUCCCACGUCGAAGUACCGUGCUUGAUGGAGUGAUGUUCGAUCAGAGGAGAAGGCGCGGUGUUAU [Same State FMN B GF22]	706 nM	368 nM	572 nM	645 nM	639 nM
AUGUACACGAUAGUGUACUCCUAGUGAUGUUAGGAUAUGCAGAUAUGCAGAAGGGACAAGUCAUCUGACAAUAGUCGGAUGACAA [FmnAX 10 #OpenEnded #K4Early]	179 nM	85.6 nM	109 nM	114 nM	91.5 nM
AUGUAUAUCUCAGGAUAUAUAUGUGUGUGGUGUAUACAUAGUGAUGUUGUGUAUAUCCACAUAUGUAUAGAAGGGAGAUGUGCAU [Skye_SS_FMNB]	76.3 nM	73.5 nM	73.9 nM	66 nM	72 nM
AUGUGGAGCGACGUUUAGAGAAACCGGGAAGGAGCGCGGAUAACCGCAGGUAGGUCGCCUGGUUGCCAGUGAUGUUGGCGACGUG [Exclusion Arg A GF 25]	87.4 nM	222 nM	144 nM	96 nM	138 nM
AUGUUUUAUAAACUCAUGGUUUCGACAGAUACCAGCUUCGAGAGGAGCCCUUGGCAGCUGCAUGAGUGAUGUUCAUGUACGAAGA [KL-XTheoA7]	374 nM	356 nM	465 nM	415 nM	265 nM
AUUAAUAACUGAGGAUAUCGUUUUACUGUAGUGAUGUUACAGAAAAUGCACAUUAUAAUUUCUAUUCGAGAAGGCAGAAUAAUUA [JR_ExcFMNB_Sub013]	110 nM	75.5 nM	74.5 nM	74.1 nM	65.4 nM
AUUAAUUUCAGAGGAUAUCGUAAUUUUAUUUAAUUUAUUCAUUUAUGCAGUGAUGUUGCUAAUAUUCGAGAAGGCUGAUUUAUAA [JR_ExcFMNB_Sub007]	103 nM	121 nM	55.8 nM	115 nM	52.2 nM
AUUAAUUUCAGAGGAUAUCGUAAUUUUAUUUUAUUUUUUCAUUUAUGCAGUGAUGUUGCAUUUAUUCGAGAAGGCUGAUUUAUAA [JR_SSFMNB_Sub021]	65.7 nM	74.4 nM	40.8 nM	69.6 nM	50.7 nM
AUUAAUUUCAGAGGAUAUGCUUAAUUGAUUAAAUAUAAUCUAUUAUGCAGUGAUGUUGCAUUUUUUGCAGAAGGCUGAUUUAUAA [JR_SSFMNB_Sub017]	136 nM	500 nM	506 nM	485 nM	385 nM
AUUUAAUUAACUGAUACCAGACUUAAUGUUUUGUAUAUUACUAGUGAUGUUAGUGAUUCUGUCCCUUGGCAGCAGUAUCUACUUA [JR_ExcTheophyB_Sub014]	140 nM	152 nM	152 nM	153 nM	117 nM
AUUUAAUUAACUGAUACCAGACUUUUUGUUUUGUAUAUUACUAGUGAUGUUAGUGUUUCUGUCCCUUGGCAGCAGUAUCUACUUA [JR_ExcTheophyB_Sub016]	197 nM	252 nM	225 nM	298 nM	157 nM
AUUUAUUCGUACUUUCAGUGAUGUUGAUAACGAGGACCGGUACGGCCGCCACUCGAUUUGGCGAUUUUGUAUUUUUUAUUCUAUA [JR_SSTryptoA_Sub010]	403 nM	474 nM	510 nM	415 nM	317 nM
AUUUUGGUUGAAGGAUAUUCUCCCAUCGACGCGAUAAGAUACUUUGGAAGGUUUGCAGUGAUGUUGGAAGAAGGUCAAAGUUGUA [theeternabot_exclusion_KL_FMN_B_22]	479 nM	382 nM	611 nM	689 nM	523 nM
CAAGGACGGCCGUAGGCAUACCGUCGAUUCAAGGAUAUCAAGAGAAUGAGAAGGUGAAGUUUAUACAGUGAUGUUGCUAUAGAGA [theeternabot_sameState_KL_FMN_A_6]	133 nM	122 nM	168 nM	195 nM	152 nM
CACGAUGAAUUCUCUAGGAGUGAUGUUUUUCGAGGACCGGUACGGCCGCCACUCGGACCAGGAACGUGGGAGCGGCGAAAAGACU [jbmullin]	665 nM	312 nM	930 nM	500 nM	343 nM
CACGAUGAAUUCUCUAGGAGUGAUGUUUUUCGAGGACCGGUACGGCCGCCACUCGGACCAGGAGCGUGGUAGCGGCGAAAAGACU [zpmullin]	769 nM	256 nM	545 nM	523 nM	484 nM
CAUACGCAUGGAGGAUAUGAGAUUUCUCAUAUUAUUUAUUAUUCUCAGUGAUGUUGGGAUUUAAACUCAGAAGGCCAUGUGUAUG [Ex FMN B 8]	252 nM	176 nM	175 nM	244 nM	199 nM
